In the series the test system is Escherichia coli TOP10. The series can be described thus: shrunken log2 fold change of peptide-encoding DNA abundance (4.5 h post-induction vs induction); higher = less antimicrobial activity (less host growth inhibition). As to conditions: time post-induction: 4.5 h; library: site-saturation at positions 5, 18, 19, 20.
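Note: peptides expressed intracellularly from a pBAD plasmid library in pooled LB shake-flask culture, induced with 0.3% L-arabinose, DNA abundance read by NGS, three biological replicates, DESeq2 with apeglm shrinkage.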

Turning to RRIRARPPRLPRPRPRPAFNPRP, the “shrunken log2 fold change” value stood at 0.273. With RRIRMRPPRLPRPRPRPQWQPRP, the “shrunken log2 fold change” value was determined as 0.825.

On to RRIRFRPPRLPRPRPRPDFWPRP, for which the “shrunken log2 fold change” value turned out to be 0.0889. With RRIRVRPPRLPRPRPRPAPEPRP, the “shrunken log2 fold change” value turned out to be 0.514. As to RRIRNRPPRLPRPRPRPPRLPRP, the “shrunken log2 fold change” value was found to be 0.514.

Take RRIRIRPPRLPRPRPRPRDHPRP: the “shrunken log2 fold change” value was -0.0591.

With RRIRERPPRLPRPRPRPCYIPRP, the “shrunken log2 fold change” value is -0.0464. For the sequence RRIRWRPPRLPRPRPRPMMYPRP, the “shrunken log2 fold change” value is -0.339. As for RRIRWRPPRLPRPRPRPKETPRP, the “shrunken log2 fold change” value worked out at 0.0203. Turning to RRIRTRPPRLPRPRPRPMTSPRP, the “shrunken log2 fold change” value is -0.168. In the case of RRIRCRPPRLPRPRPRPHGNPRP, the “shrunken log2 fold change” value was -0.233. Turning to RRIRFRPPRLPRPRPRPFHPPRP, the “shrunken log2 fold change” value was found to be 0.039. For RRIRVRPPRLPRPRPRPGSKPRP the value was 0.0731; for RRIRWRPPRLPRPRPRPLQYPRP, -0.133; for RRIRPRPPRLPRPRPRPSHHPRP, -0.529. Take RRIRNRPPRLPRPRPRPKCKPRP: the “shrunken log2 fold change” value is -0.261. For the sequence RRIRIRPPRLPRPRPRPNIRPRP, the “shrunken log2 fold change” value is -1.14. RRIRARPPRLPRPRPRPDMQPRP: the “shrunken log2 fold change” value turned out to be 0.984. For the sequence RRIRERPPRLPRPRPRPGAHPRP, the “shrunken log2 fold change” value was determined as 0.0368. RRIRGRPPRLPRPRPRPHGKPRP: the “shrunken log2 fold change” value was 0.513. Then RRIRLRPPRLPRPRPRPHTRPRP, with -0.0601. In the case of RRIRIRPPRLPRPRPRPYWDPRP, the “shrunken log2 fold change” value was -0.143.

Consider RRIRGRPPRLPRPRPRPSEKPRP, for which the “shrunken log2 fold change” value was determined as 1.49. Take RRIRIRPPRLPRPRPRPWGTPRP: the “shrunken log2 fold change” value was -0.859. Take RRIRQRPPRLPRPRPRPPNFPRP: the “shrunken log2 fold change” value is -0.0994. For RRIRPRPPRLPRPRPRPSNMPRP, the “shrunken log2 fold change” value is -0.884. For RRIRHRPPRLPRPRPRPVGSPRP, the “shrunken log2 fold change” value turned out to be 0.145. Regarding RRIRARPPRLPRPRPRPWFSPRP, the “shrunken log2 fold change” value is -0.00399. RRIRWRPPRLPRPRPRPCDWPRP: the “shrunken log2 fold change” value was determined as 0.0315.

In the case of RRIRVRPPRLPRPRPRPIQLPRP, the “shrunken log2 fold change” value was -0.174. With RRIRERPPRLPRPRPRPGKMPRP, the “shrunken log2 fold change” value was 0.0204. As for RRIRKRPPRLPRPRPRPHPLPRP, the “shrunken log2 fold change” value came out at 0.393.

As for RRIRMRPPRLPRPRPRPHINPRP, the “shrunken log2 fold change” value was -0.339. Regarding RRIRMRPPRLPRPRPRPVRCPRP, the “shrunken log2 fold change” value came to 0.117. Regarding RRIRWRPPRLPRPRPRPRSSPRP, the “shrunken log2 fold change” value was 0.246. Then RRIRVRPPRLPRPRPRPARLPRP, with 0.266; and RRIRHRPPRLPRPRPRPEAIPRP, with -0.0296. Then RRIRWRPPRLPRPRPRPEDRPRP, with 0.213; and RRIRYRPPRLPRPRPRPRYYPRP, with -2.49; and RRIRVRPPRLPRPRPRPDYLPRP, with -0.222. With RRIRHRPPRLPRPRPRPYNTPRP, the “shrunken log2 fold change” value was -1.01. For the sequence RRIRHRPPRLPRPRPRPHIKPRP, the “shrunken log2 fold change” value is -0.83. Regarding RRIRERPPRLPRPRPRPTDAPRP, the “shrunken log2 fold change” value stood at 0.0786. As for RRIRVRPPRLPRPRPRPKAIPRP, the “shrunken log2 fold change” value was -0.0609. Take RRIRPRPPRLPRPRPRPTMLPRP: the “shrunken log2 fold change” value was -0.114. Consider RRIRWRPPRLPRPRPRPFFTPRP, for which the “shrunken log2 fold change” value is -0.0367.

The values are drawn from the supplement of paper PMC9112550, “Optimization of the antimicrobial peptide Bac7 by deep mutational scanning” (BMC Biology, 2022).
